Reference: US20130011378A1, “Stable formulations of a hyaluronan-degrading enzyme” (priority 2011, published 2013)
Read-outs that look alike come from different tables or passages of the source.

How the values were obtained:
[1] = Lysyl lysine as buffer: titration curve and effect of temperature on pH; type: physicochemical; details: rHuPH20/insulin glulisine formulations, 30-105 mM lysyl lysine
[2] = target: T1, rHuPH20 (Homo sapiens, UniProt P38567); test: Determination of hyaluronidase activity of rHuPH20, turbidimetric assay (Example 2, variant not specified); type: biochemical; details: for Effect on rHuPH20 enzymatic activity: stabilizer screening in rHuPH20/insulin formulation, semi-quantitative in comparison with NaCl, samples incubated at 30° C. for about one week
T1 construct: made in house; host or cells: CHO cells (DG44 CHO, HZ24 plasmid, clone 2B2)
T1 sequence (P38567 36-482): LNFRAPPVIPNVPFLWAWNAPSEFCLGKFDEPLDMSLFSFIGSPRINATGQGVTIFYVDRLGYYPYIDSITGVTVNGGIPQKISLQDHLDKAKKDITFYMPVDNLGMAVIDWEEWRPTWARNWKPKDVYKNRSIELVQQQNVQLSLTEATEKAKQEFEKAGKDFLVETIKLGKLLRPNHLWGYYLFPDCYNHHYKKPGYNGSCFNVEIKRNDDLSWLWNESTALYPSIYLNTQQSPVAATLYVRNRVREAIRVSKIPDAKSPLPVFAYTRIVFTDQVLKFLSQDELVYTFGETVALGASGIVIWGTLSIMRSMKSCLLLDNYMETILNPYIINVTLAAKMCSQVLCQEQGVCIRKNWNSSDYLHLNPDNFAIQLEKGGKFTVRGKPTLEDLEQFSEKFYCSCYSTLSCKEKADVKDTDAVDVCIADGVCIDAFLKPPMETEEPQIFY

[3] = RP-HPLC: insulin apparent solubility / percent recovery
Procedure: Apparent solubility was measured as the percent insulin recovery as compared to the initial formulations/conditions.
Samples were prepared by withdrawing 100 μL from each vial at every time point and centrifuging prior to loading. Samples were stored in an autosampler at 4° C. prior to use, and were considered stable for 3 days after preparation. All samples were tested in duplicate.
For insulin, 20 μL was injected for each HPLC run.
To determine the apparent solubility, the peak area of insulin/insulin analog main peak and desamido peak were integrated and combined together to calculate the percentage relative to the standards. […] The data were processed using Design-Expert® 7.0 (StatEase) and the “historical data” feature. Insulin percent purity was expressed as the percent of main insulin versus all insulin species.

[4] = system: Aspergillus niger, Pseudomonas aeruginosa, E. coli, Staphylococcus aureus and Candida albicans; test: Antimicrobial (preservative) effectiveness test, USP / EPA / EPB criteria; type: cell-based
Excerpt: One of skill in the art is familiar with the antimicrobial preservative effectiveness test and standards to be meet under the USP and EPA or EPB in order to meet minimum requirements. […] The preservative properties of the composition are deemed adequate if, under the conditions of the test, there is a significant fall or no increase, as specified in Table 6, below, in the number of microorganisms in the inoculated composition after the times and at the temperatures prescribed. The criteria for evaluation are given in terms of the log reduction in the number of viable microorganism as compared to the initial sample or the previous timepoint.
The number of viable microorganisms (cfu) in each sample is determined by plate count or membrane filtration. Finally, the cfu for each sample is compared to either the inoculum or the previous sample and log reduction is determined.
The tests were performed according to the guidance of EP and USP by a contract analytical laboratory (Quadrants Scientific, Inc., San Diego, Calif.). […] Raw data (CFU/mL) was converted to a log 10 unit reduction from the measured inoculum. […]
The tests were performed according to the guidance of EP and USP by a contract analytical laboratory (Quadrants Scientific, Inc., San Diego, Calif. and Lancaster Laboratories, Lancaster, Pa.). […] Raw data (CFU/mL) was converted to a log 10 unit reduction from the measured inoculum. […]

[5] = reported; cited from earlier work
[6] = target: T1, rHuPH20; test: RP-HPLC: rHuPH20 oxidation peaks (ox-1, ox-2); type: physicochemical; details: 40 mM methionine, rHuPH20/insulin formulation, 30° C., 5 weeks
Excerpt: The stability of hyaluronan degrading enzymes in a composition, such as in the co-formulations provided herein, also can be assessed using other methods and assays known in the art. […] Percent recovery is the relative percentage of the hyaluronidase in the co-formulation over time and at various storage conditions, as compared to a reference sample. […] An increase in particle size and a decrease in the melting temperature indicates denaturation and subsequent aggregation of the hyaluronidase. […] Other methods known to one of skill in the art that can be used to determine the stability of the hyaluronidase in the co-formulations provided herein, include polyacrylamide gel electrophoresis (PAGE), immunoblotting, nuclear magnetic resonance (NMR) spectroscopy, mass spectrometry, circular dichroism (CD) and dye-based fluorescence assays.
The formulations varied in the surfactant and surfactant concentration and the buffer (either histidine or phosphate).
Methionine oxidation can be prevented by addition of free methionine as a scavenger to react with potential oxidative compounds.

[7] = target: T1, rHuPH20; test: Differential scanning calorimetry: Tm of rHuPH20; type: physicochemical; details: in the presence of […] m-cresol
[8] = stabilizer screening in rHuPH20/insulin formulation, semi-quantitative in comparison with NaCl, RP-HPLC, samples stored at 5° C.

In the case of `Cl.Cl.NCCCCC(N)C(=O)NC(CCCCN)C(=O)O` (stereo not shown) [Lys-Lys, Lys-Lys dihydrochloride], the “temperature effect (dpH/dT)” value [1] is reported as −0.033 U/° C, the “Effect on rHuPH20 enzymatic activity” value [2] is reported as “Strong stabilizer” and the “effect on rHuPH20 stability in comparison with NaCl” value ([2]; stabilizer screening, 30° C. about one week, […] m-cresol, 0.2% phenol) is reported as “stabilized rHuPH20 more than NaCl”. For the same molecule, the “Effect on insulin solubility” value [3, 8] was “Reduced solubility” and the “Effect on insulin solubility” value ([3]; stabilizer screening, samples stored at 5° C.) was “caused severe precipitation of insulin”.

For `[Cl-].[Na+]` [NaCl], the “Effect on antimicrobial effectiveness” value ([4]; component concentration (80-100 mM)) was “Neutral”.

For `NC(CO)(CO)CO` [Tris], the “temperature effect (dpH/dT)” value [5] is given as −0.028 U/° C, the “Effect on rHuPH20 enzymatic activity” value [2] is given as “No effect” and the “Effect on insulin solubility” value [3] is given as “No effect”.

In the case of `CSCC[C@H](N)C(=O)O` [methionine], the “ox-1 peak of rHuPH20 compared to formulations without methionine” value [6] is reported as “significantly smaller”, the rHuPH20 enzymatic activity ([2]; 1 mM methionine, 30° C. for one month, starting 650 U/mL) is reported as 525 U/mL and the rHuPH20 enzymatic activity ([2]; 20 mM methionine, 30° C. for one month, starting 650 U/mL) is reported as 522 U/mL. For the same molecule, the “Effect on rHuPH20 enzymatic activity” value [2] was “No effect”, the “Effect on antimicrobial effectiveness” value ([4]; component concentration (50-100 mM), formulations with 100 U/mL insulin or analog and 5 μg/mL rHuPH20) was “Neutral” and the “Effect on insulin solubility” value [3, 8] was “No effect”.

B1: rHuPH20: secreted soluble recombinant human PH20 expressed in CHO cells; nucleic acid encodes amino acids 36-482 of SEQ ID NO:1 (protein, listed as Homo sapiens)
chain: LNFRAPPVIPNVPFLWAWNAPSEFCLGKFDEPLDMSLFSFIGSPRINATGQGVTIFYVDRLGYYPYIDSITGVTVNGGIPQKISLQDHLDKAKKDITFYMPVDNLGMAVIDWEEWRPTWARNWKPKDVYKNRSIELVQQQNVQLSLTEATEKAKQEFEKAGKDFLVETIKLGKLLRPNHLWGYYLFPDCYNHHYKKPGYNGSCFNVEIKRNDDLSWLWNESTALYPSIYLNTQQSPVAATLYVRNRVREAIRVSKIPDAKSPLPVFAYTRIVFTDQVLKFLSQDELVYTFGETVALGASGIVIWGTLSIMRSMKSCLLLDNYMETILNPYIINVTLAAKMCSQVLCQEQGVCIRKNWNSSDYLHLNPDNFAIQLEKGGKFTVRGKPTLEDLEQFSEKFYCSCYSTLSCKEKADVKDTDAVDVCIADGVCIDAFLKPPMETEEPQIFY
modifications: precursor human PH20
For B1, the rHuPH20 enzymatic activity ([2]; 2-8° C., 5 Months, pH 7.0, NaCl 50 mM) was 494.4796, the rHuPH20 enzymatic activity ([2]; 2-8° C., 5 Months, pH 7.0, NaCl 80 mM) was 575.3274 and the rHuPH20 enzymatic activity ([2]; 2-8° C., 5 Months, pH 7.0, NaCl 110 mM) was 615.3546. The rHuPH20 enzymatic activity ([2]; 2-8° C., 5 Months, pH 7.0, NaCl 140 mM) was 582.4274, the rHuPH20 enzymatic activity ([2]; 2-8° C., 5 Months, pH 7.2, NaCl 50 mM) was 481.6035 and the rHuPH20 enzymatic activity ([2]; 2-8° C., 5 Months, pH 7.2, NaCl 80 mM) was 566.2521. It also gave a rHuPH20 enzymatic activity ([2]; 2-8° C., 5 Months, pH 7.2, NaCl 110 mM) of 593.2027, a rHuPH20 enzymatic activity ([2]; 2-8° C., 5 Months, pH 7.2, NaCl 140 mM) of 585.9948 and a rHuPH20 enzymatic activity ([2]; 2-8° C., 5 Months, pH 7.4, NaCl 50 mM) of 526.6628. It also gave a rHuPH20 enzymatic activity ([2]; 2-8° C., 5 Months, pH 7.4, NaCl 80 mM) of 564.7769, a rHuPH20 enzymatic activity ([2]; 2-8° C., 5 Months, pH 7.4, NaCl 110 mM) of 618.3856 and a rHuPH20 enzymatic activity ([2]; 2-8° C., 5 Months, pH 7.4, NaCl 140 mM) of 585.9813. For the same molecule, the rHuPH20 enzymatic activity ([2]; 2-8° C., 5 Months, pH 7.6, NaCl 50 mM) was 508.0571, the rHuPH20 enzymatic activity ([2]; 2-8° C., 5 Months, pH 7.6, NaCl 80 mM) was 546.4209 and the rHuPH20 enzymatic activity ([2]; 2-8° C., 5 Months, pH 7.6, NaCl 110 mM) was 581.6326. The rHuPH20 enzymatic activity ([2]; 2-8° C., 5 Months, pH 7.6, NaCl 140 mM) was 594.6197, the rHuPH20 enzymatic activity ([2]; 2-8° C., 9 Months, pH 7.0, NaCl 50 mM) was 436.5115 and the rHuPH20 enzymatic activity ([2]; 2-8° C., 9 Months, pH 7.0, NaCl 80 mM) was 513.9692. For the same molecule, the rHuPH20 enzymatic activity ([2]; 2-8° C., 9 Months, pH 7.0, NaCl 110 mM) was 551.0218, the rHuPH20 enzymatic activity ([2]; 2-8° C., 9 Months, pH 7.0, NaCl 140 mM) was 554.6513 and the rHuPH20 enzymatic activity ([2]; 2-8° C., 9 Months, pH 7.2, NaCl 50 mM) was 451.8324. For the same molecule, the rHuPH20 enzymatic activity ([2]; 2-8° C., 9 Months, pH 7.2, NaCl 80 mM) was 518.0740, the rHuPH20 enzymatic activity ([2]; 2-8° C., 9 Months, pH 7.2, NaCl 110 mM) was 553.1847 and the rHuPH20 enzymatic activity ([2]; 2-8° C., 9 Months, pH 7.2, NaCl 140 mM) was 536.7846. It also gave a rHuPH20 enzymatic activity ([2]; 2-8° C., 9 Months, pH 7.4, NaCl 50 mM) of 466.1871, a rHuPH20 enzymatic activity ([2]; 2-8° C., 9 Months, pH 7.4, NaCl 80 mM) of 509.9032 and a rHuPH20 enzymatic activity ([2]; 2-8° C., 9 Months, pH 7.4, NaCl 110 mM) of 560.4847. For the same molecule, the rHuPH20 enzymatic activity ([2]; 2-8° C., 9 Months, pH 7.4, NaCl 140 mM) was 542.4534, the rHuPH20 enzymatic activity ([2]; 2-8° C., 9 Months, pH 7.6, NaCl 50 mM) was 464.8964 and the rHuPH20 enzymatic activity ([2]; 2-8° C., 9 Months, pH 7.6, NaCl 80 mM) was 515.3382. The rHuPH20 enzymatic activity ([2]; 2-8° C., 9 Months, pH 7.6, NaCl 110 mM) was 531.9202, the rHuPH20 enzymatic activity ([2]; 2-8° C., 9 Months, pH 7.6, NaCl 140 mM) was 523.5385 and the “time rHuPH20 stable” value ([2]; 5° C., […] m-cresol, […] phenol, pH 7.0-7.6, 50-140 mM NaCl) was 12 months. The “reduction of Tm of rHuPH20 by DSC” value [7] was “about 2 °C”.
